Results on one molecule are retold here after paper PMC6220978, “Induced conformational changes activate the peptidoglycan synthase PBP1B” (Molecular Microbiology, 2018).

Positions count from the first letter of the chain named.

For one test, the target named is T1, PBP1B Q318A (E. coli, UniProt P02919 46-844, Q318A).
T1 sequence (looked up): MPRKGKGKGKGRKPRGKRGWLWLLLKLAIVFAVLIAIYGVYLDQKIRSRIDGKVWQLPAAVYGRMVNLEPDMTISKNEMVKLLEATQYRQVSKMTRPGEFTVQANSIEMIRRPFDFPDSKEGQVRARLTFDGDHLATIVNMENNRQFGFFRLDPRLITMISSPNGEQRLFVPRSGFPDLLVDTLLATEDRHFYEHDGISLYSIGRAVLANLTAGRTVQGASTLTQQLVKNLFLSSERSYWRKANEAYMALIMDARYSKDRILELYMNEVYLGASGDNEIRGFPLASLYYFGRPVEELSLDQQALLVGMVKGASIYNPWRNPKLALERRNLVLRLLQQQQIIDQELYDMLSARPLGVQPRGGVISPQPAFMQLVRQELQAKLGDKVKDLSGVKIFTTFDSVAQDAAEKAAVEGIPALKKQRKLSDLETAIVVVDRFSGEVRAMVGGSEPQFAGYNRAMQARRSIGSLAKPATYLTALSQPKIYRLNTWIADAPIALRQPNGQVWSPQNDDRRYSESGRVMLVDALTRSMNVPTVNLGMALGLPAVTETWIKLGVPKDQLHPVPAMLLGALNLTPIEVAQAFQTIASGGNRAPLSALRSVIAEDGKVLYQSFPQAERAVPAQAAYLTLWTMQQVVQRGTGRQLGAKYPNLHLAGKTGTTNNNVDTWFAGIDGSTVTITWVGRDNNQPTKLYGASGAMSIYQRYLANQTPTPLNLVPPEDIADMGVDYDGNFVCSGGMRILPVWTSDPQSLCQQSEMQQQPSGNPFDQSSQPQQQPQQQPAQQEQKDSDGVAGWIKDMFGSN
In words: cell-based or functional assay.

For test [1], the target named is T2, PBP1B (wild type, PBP1B^46-844) (E. coli, UniProt P02919 46-844).
T2 sequence (looked up): T1 sequence (looked up) with A273Q
As to the kind of experiment: cell-based or functional assay.

Another test has as its target T3, PBP1B R109G (E. coli, UniProt P02919 46-844, R109G).
T3 construct: PBP1B, E. coli, residues 46-844, made by mutagenesis of pDML924; source: E. coli BL21(DE3), purified (membrane extract, HisTrap, thrombin, HiTrap SP ion exchange)
T3 sequence (looked up): T1 sequence (looked up) with R64G, A273Q
As to the kind of experiment: SPR; PBP1B versions immobilised to the chip surface; LpoB injected from 19.5 nM to 10 μM; apparent KD by non-linear regression, at least three independent experiments. The conditions noted are these: both partners purified. A general note: In SPR one partner is held on a chip, and binding of the other changes the refractive index at the surface.

B1: LpoB (natural protein, E. coli)
chain: VGQREPAPVEEVKPAPEQPAEPQQPVPTVPSVPTIPQQPGPIEHEDQTAPPAPHIRHYDWNGAMQPMVSKMLGADGVTAGSVLLVDSVNNRTNGSLNAAEATETLRNALANNGKFTLVSAQQLSMAKQQLGLSPQDSLGTRSKAIGIARNVGAHYVLYSSASGNVNAPTLQMQLMLVQTGEIIWSGKGAVSQQ
notes: LpoB, E. coli; also called lipoprotein LpoB; source: E. coli BL21(DE3), purified (HisTrap, Superdex 200), as in Egan et al. 2014
With B1, in the test with PBP1B Q318A, the “fold activation of the GTase rate of PBP1B Q318A by LpoB” value was about 25 fold. In addition, the “GTase rate of WT PBP1B with LpoB relative to the basal rate of WT PBP1B (continuous fluorescence assay, dansylated lipid II; 0.5 μM PBP1B, 2 μM LpoB)” value in test [1] was 10.2 fold. Further, in the test with PBP1B R109G, the Kd turned out to be 3.09 µM.
